Experimental data from patent publication US20250042968A1, “EPHRIN LIGAND MIMETIC PEPTIDES FOR THE TREATMENT OF NEURODEGENERATIVE DISEASES” (University of Miami, priority 2022, published 2025).

B1: efnB3: recombinant Efn ligand containing a His-Tag (R&D Systems), pre-clustered with anti-His antibody (protein, UniProt Q15768 28-226, looked up)
extracellular domain: LSLEPVYWNSANKRFQAEGGYVLYPQIGDRLDLLCPRARPPGPHSSPNYEFYKLYLVGGAQGRRCEAPPAPNLLLTCDRPDLDLRFTIKFQEYSPNLWGHEFRSHHDYYIIATSDGTREGLESLQGGVCLTRGMKVLLRVGQSPRGGAVPRKPVSEMPMERDRGAAHSLEPGKENLPGDPTSNATSRGAEGPLPPPSMP
modifications: extracellular domain His tag, pre-clustered
notes: recombinant Efn ligand containing a His-Tag (R&D Systems), pre-clustered with anti-His antibody
B2: efnB1: pre-clustered ephrin ligand on laminin-coated surface (protein, UniProt P98172 28-346, looked up)
Ephrin-B1: LAKNLEPVSWSSLNPKFLSGKGLVIYPKIGDKLDIICPRAEAGRPYEYYKLYLVRPEQAAACSTVLDPNVLVTCNRPEQEIRFTIKFQEFSPNYMGLEFKKHHDYYITSTSNGSLEGLENREGGVCRTRTMKIIMKVGQDPNAVTPEQLTTSRPSKEADNTVKMATQAPGSRGSLGDSDGKHETVNQEEKSGPGASGGSSGDPDGFFNSKVALFAAVGAGCVIFLLIIIFLTVLLLKLRKRHRKHTQQRAAALSLSTLASPKGGSGTAGTEPSDIIIPLRTTENNYCPHYEKVSGDYGHPVYIVQEMPPQSPANIYYKV
modifications: pre-clustered
notes: pre-clustered ephrin ligand on laminin-coated surface

Test system: human fetal brain-derived neural stem cells (hNSC)
Experiment: hNSC growth on ephrin-ligand repulsive substrates
Type: cell-based
Conditions: for substrate effect on neuronal cell growth: laminin-coated surfaces containing pre-clustered efn ligand
Method: Fetal brain-derived neural stem cells (hNSC): In order to evaluate the effect of xEFN peptides on human neuronal cells, StemPro hNSC were purchased from ThermoFisher Scientific (Cat. no. A15654) and cultured according to the manufacturer's recommended protocol. Briefly, cells were grown in non-adherent neurosphere suspension cultures in StemPro NSC serum-free media (NSC-SFM) (Cat. no. A10509-01) supplemented with 2 mM GlutaMAX-I supplement, 6 U/mL heparin, and 200 μM ascorbic acid (Sigma-Aldrich, Cat. no. A8960). Culture media was changed every 2 days and cells were passaged every 7 days as undifferentiated hNSC. To induce differentiation into neuronal cells, hNSC neurospheres were dissociated into single-cell suspensions using StemPro Accutase for 5 minutes at 37° C. followed by mechanical pipetting. hNSC were then plated onto Geltrex-coated culture vessels at a concentration of 2×10^4 cells/cm^2 in neuronal differentiation media consisting of NSC media without bFGF or EGF and supplemented with B-27 supplement (ThermoFisher Scientific) for 3 days prior to performing further in vitro assays.
Glial-bound efn ligands have been associated with mediating the major repulsive milieu for neuronal process in the CNS. […] Moreover, assays on the repulsive nature of efn ligand-presenting surfaces have been a mainstay in axonal guidance studies for many decade. The use of xEFN peptides to antagonize this repulsive signaling from efn ligand substrates was evaluated on human fetal brain-derived neural stem cells (hNSC).
Recombinant Efn ligands (A2, A4, and B3) containing a His-Tag were purchased from R&D Systems, and were pre-clustered using an anti-His antibody (Genetex) for 30 min. The pre-clustered Efn ligands, or anti-his antibody alone, (control) were then mixed with laminin from human placenta (Sigma-Aldrich) in suspension and used to coat the growth surface of a 24-well plate. […] The entire wells were then scanned using an EVOS FL Auto fluorescent microscope and the images were analyzed in the ImageJ software to calculate cell coverage area.

Row | Molecule | substrate effect on neuronal cell growth | hNSC confluence on pre-clustered efn ligand substrate (no peptide, compared to the laminin-only control confluence)
1 | B1 | highly repulsive substrates | 44.61+/−1.61%
2 | B2 | highly repulsive substrates | 
